Laboratory results reported in paper PMC3572128.

Target: caspase-8 (P10 and P18 subunits reconstituted in their active form)
Test: flow cytometry of giant unilamellar vesicles; CL-containing GUVs in PBS; caspase-8 290 nM bound to the vesicles, fluorescent Bid added at 10 to 100 nM; vesicle fluorescence recorded online

mean fluorescence of GUVs + caspase-8 + Bid (0 min): 84 a.u.
B1: full-length Bid (C15S, C28S), fluorescently labelled (natural protein)
chain: MDCEVNNGSSLRDESITNLLVFGFLQSSSDNSFRRELDALGHELPVLAPQWEGYDELQTDGNRSSHSRLGRIEADSESQEDIIRNIARHLAQVGDSMDRSIPPGLVNGLALQLRNTSRSEEDRNRDLATALEQLLQAYPRDMEKEKTMLVLALLLAKKVASHTPSLLRDVFHTTVNFINQNLRTYVRSLARNGMD
modifications: Bodipy488 or Alexa647 maleimide labelling (legends and results also say Alexa488)
